# Laboratory results from patent publication US20080220446A1, “Method for Detecting and/or Removing Protein and/or Peptide Comprising a Cross-Beta Structure From an Aqueous Solution Comprising a Protein” (priority 2005, published 2008).
# Experiments:
# [1] = ThT fluorescence enhancement by biopharmaceuticals; assay type: physicochemical; conditions: +/− SD; five μL of protein therapeutic
# Method: Fluorescence of ThT—protein/peptide adducts was measured as follows. […] Fluorescence was measured at 485 nm upon excitation at 435 nm. Background signals from buffer, buffer with ThT and protein/peptide solution without ThT were subtracted from corresponding measurements with protein solution incubated with ThT. Regularly, fluorescence of Aβ was used as a positive control, and fluorescence of FP10, a non-amyloid fibrin fragment^16, was used as a negative control. Fluorescence was measured in triplicate on a Hitachi F-4500 fluorescence spectrophotometer (Ltd., Tokyo, Japan).
# β2-GPI was reduced and alkylated as follows. Sixhundredforty μl of β2-GPI stock was mixed with 640 μl of 8 M Urea (cooled solution) in 0.1 M Tris pH-8.2. The solution was degassed with N2 gas for approximately 6 minutes. From a 1 M DTT stock 12.8 μl was added to the solution, mixed and incubated for 3 hours at room temperature. A 1 M Iodoacetamide (Sigma; I-6125) was prepared, of which 25.6 μl was added to the β2-GPI reaction mixture. The solution was subsequently dialysed against PBS. […] Signals obtained with alkyl-β2gpi are compared with those obtained with native β2gpi starting material and with positive control acid/heat denatured amyloid-like misfolded γ-globulins.
# (§1) Protein therapeutics were obtained from the local hospital pharmacy and analyzed within the expiry limits as stated by the manufacturers.
# Fluorescence of Thioflavin T (ThT; Sigma T-3516, St. Louis, Mo., USA) and Congo red (CR; Aldrich Chemical Company Inc., Milwaukee, Wis., USA) was measured on a Hitachi F-4500 spectrophotometer at an excitation wavelength of 435 nm and emission wavelength of 485 nm for ThT and an excitation wavelength of 550 nm and emission wavelength of 595 nm for Congo red. […] Fluorescence was measured in triplicate. Background fluorescence of both protein in buffer and dye-solution were subtracted from the total fluorescence signal. Five μg/mL fibrillar amyloid-β(1-40) E22Q (Peptide Synthesis Facility of the Dutch Cancer Institute NKI, Amsterdam, The Netherlands) was used as a positive control in all fluorescence assays.
# tPA [2] = biological target: T1, tPA (Homo sapiens, UniProt P00750); assay: Plasminogen-activation assay (tPA activation, S-2251); assay type: biochemical
# Method: Plasmin (Pls) activity was assayed as described^16. Peptides and proteins that were tested for their stimulatory ability were regularly used at 100 μg ml^−1. […] Chromogenic substrate S-2251 (Chromogenix, Instrumentation Laboratory SpA, Milano, Italy) was used to measure Pls activity. Conversion of zymogen factor XII (#233490, Calbiochem, EMD Biosciences, Inc., San Diego, Calif.) to proteolytically active factor XII (factor XIIa) was assayed by measurement of the conversion of chromogenic substrate Chromozym-PK (Roche Diagnostics, Almere, The Netherlands) by kallikrein. Chromozym-PK was used at a concentration of 0.3 mM. Factor XII, human plasma prekallikrein (#529583, Calbiochem) and human plasma cofactor high-molecular weight kininogen (#422686, Calbiochem) were used at concentrations of 1 μg ml^−1. […] Assays were performed using microtiter plates (Costar, Cambridge, Mass., USA). Peptides and proteins were tested for their ability to activate factor XII. 150 μg ml^−1 kaolin, an established activator of factor XII was used as positive control and solvent (H2O) as negative control. The conversion of Chromozym-PK was recorded kinetically at 37° C. for at least 60 minutes. Assays were done in duplicate.
# Formulated protein therapeutics were obtained from the local hospital pharmacy and were used as supplied by the manufacturers. […] Lyophilized therapeutics were dissolved according to the manufacturers recommendations. GH, zinc-insulin, Cealb and gelatin were stored at −20, 4, room temperature, 37 and 65° C. Other protein therapeutics were only kept at 4° C., and assayed for the presence of cross-β structure at shown time points. Enhancement in fluorescence of ThT and Congo red was measured with all formulated protein therapeutics. For this purpose, proteins were diluted to the indicated concentrations. […] Zinc-insulin was diluted tenfold in the activation assay, GH was diluted to a final concentration of 500 μg ml^−1. Activation of factor XII and prekallikrein by the therapeutics was tested in the chromogenic factor XII assay (see above). […] After coating, plates were blocked with Blocking Reagent (Roche Diagnostics, Almere, The Netherlands).
# To prepare structurally altered ovalbumin (OVA) with amyloid cross-β structures, purified OVA (Sigma, A-7641, lot 071k7094) was heated to 85° C. One mg ml^−1 OVA in 67 mM NaPi buffer pH 7.0, 100 mM NaCl, was heated for two cycles in PCR cups in a PTC-200 thermal cycler (MJ Research, Inc., Waltham, Mass., USA). In each cycle, OVA was heated from 30 to 85° C. at a rate of 5° C./min. Native OVA (nOVA) and heat-denatured OVA (dOVA) were tested in the ThT fluorescence assay and in the Plg-activation assay. In the fluorescence assay and in the Plg-activation assay, 25 and 100 μg ml^−1 nOVA and dOVA were tested, respectively. TEM images of nOVA and dOVA were taken to check for the presence of large aggregates.
# MSA (#126674, Calbiochem) was dissolved in 8 M urea, 100 mM Tris-HCl pH 8.2, at 10 mg ml^−1 final concentration. Dithiothreitol (DTT) was added to a final concentration of 10 mM. Air was replaced by N2 and the solution was incubated for 2 h at room temperature. Then, the solution was transferred to ice and iodoacetamide was added from a 1 M stock to a final concentration of 20 mM. […] Alkyl-MSA was dialyzed against H2O before use. […] In the ThT-fluorescence assay 25 μg ml^−1 nMSA and alkyl-MSA were tested, and in the Plg-activation assay 100 μg ml^−1 was tested. The presence of aggregates or fibrils was analyzed using TEM.
# Lyophilized sterile glucagon was dissolved at 1 mg ml^−1 in H2O with 10 mM HCl. The solution was subsequently kept at 37° C. for 24 h, at 4° C. for 14 days and again at 37° C. for 9 days. […] TEM analysis was performed to assess the presence of large multimeric structures.
# tPA [3] = biological target: T1, tPA; assay: tPA binding assay with immobilized biopharmaceuticals in an ELISA; conditions: coated 1:10, one-site binding model
# Method: Plates were washed twice with Tris buffered saline pH 7.2 containing 0.1% Tween20 (TBST) and blocked with PBS containing 1% Tween20 for 1 hour at room temperature. […] Plates were washed five times with TBST and incubated with peroxidase labeled anti-mouse immunoglobulins (RAMPO; DAKOCytomation, Glostrup, Denmark) diluted 1:3000 in PBST for 30 minutes at room temperature. Plates were washed five times with PBS 0.1% Tween20, and stained with 100 μL/well of tetramethyl-benzidine (TMB) substrate (Biosource Europe, Nivelles, Belgium). The reaction was terminated with 50 μL/well of 2 M H2SO4 and substrate conversion was read at 450 nm on a Spectramax340 microplate reader. Curves were fitted with a one-site binding model (GraphPad Prism version 4.02 for Windows, Graphpad Software, Calif., USA) from which Kd and Bmax were determined.
# as §1
# T1 sequence (P00750 36-562): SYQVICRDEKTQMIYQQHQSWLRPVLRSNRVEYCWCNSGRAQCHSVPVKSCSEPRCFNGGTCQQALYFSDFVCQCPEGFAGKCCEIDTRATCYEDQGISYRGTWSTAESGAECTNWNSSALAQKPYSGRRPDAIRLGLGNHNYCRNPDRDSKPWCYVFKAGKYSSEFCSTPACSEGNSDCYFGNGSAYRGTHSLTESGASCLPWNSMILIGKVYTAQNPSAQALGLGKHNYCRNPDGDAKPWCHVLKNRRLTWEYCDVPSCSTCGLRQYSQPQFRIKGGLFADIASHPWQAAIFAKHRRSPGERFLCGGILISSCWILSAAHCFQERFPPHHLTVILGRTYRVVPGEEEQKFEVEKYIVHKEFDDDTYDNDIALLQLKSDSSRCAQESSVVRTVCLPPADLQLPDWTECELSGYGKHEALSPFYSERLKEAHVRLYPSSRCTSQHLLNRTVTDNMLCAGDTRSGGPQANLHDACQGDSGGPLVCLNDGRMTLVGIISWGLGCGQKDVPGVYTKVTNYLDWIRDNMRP
Pls activity (tPA activating properties) (tPA [2]; after storage at 65° C.),tPA Binding Bmax (tPA [3]) [OD450 nm],tPA activation (tPA [2]; protein solutions stored at 4° C.),Kd (tPA [3]) [nM],Substance,Fluorescence ThT [1]
induced Pls activity,0.5329,,,"Abciximab: abciximab, an inhibitor of blood platelet aggregation (ReoPro, Centocor)",8 +/− 8 a.u.
,0.9369,induced tPA activation,9.05,"Somatropin: human growth hormone (Genotropin, Pharmacia)",1317 +/− 10 a.u.
